# B1: ATD_15.52 (structured_RNA)
# RNA: GGGAGAAUCAUAAGUAGCGCAGUGAGUCGUUGUGCUGCCCAUGUUAACAGUUAGCC
# B2: pre-miR-16-1 (structured_RNA)
# RNA: UAGCAGCACGUAAAUAUUGGCGUUAAGAUUCUAAAAUUAUCUCCAGUAUUAACUGUGCUGCUGAA
# B3: pre-miR-21 (structured_RNA)
# RNA: AGCUUAUCAGACUGAUGUUGACUGUUGAAUCUCAUGGCAACACCAGUCGAUGGGCUGU
# B4: pre-miR-33a (structured_RNA)
# RNA: GUGCAUUGUAGUUGCAUUGCAUGUUCUGGUGGUACCCAUGCAAUGUUUCCACAGUGCAUC
# B5: 2OMe-AL-210 (XNA)
# strand: GGGGCAGCGCAG
# modifications: 2'-O-methyl at every ribose
# Columns and labels:
# [1] = target: T1, hDicer (human recombinant Dicer) (human, UniProt Q9UPY3 1-1922); experiment: EMSA; no divalent metal, 4 C; Filter binding: 20 mM Tris-HCl pH 7.5, 250 mM NaCl (membrane pre-soak/reaction buffer), 37 C 30 min; hDicer EMSA: 20 min at 4 C, Dicer preincubated without divalent cations (Fig S1), native PAGE; details: protein: commercial; label: 5'-32P
# [2] = target: T1, hDicer (human recombinant Dicer); experiment: competition; displaces labeled ATD_13.6 (most profound effect); Filter binding: 20 mM Tris-HCl pH 7.5, 250 mM NaCl (membrane pre-soak/reaction buffer), 37 C 30 min; hDicer EMSA: 20 min at 4 C, Dicer preincubated without divalent cations (Fig S1), native PAGE; details: protein: commercial; hairpin
# [3] = target: T1, hDicer (human recombinant Dicer); experiment: competition; displaces labeled ATD_13.6; Filter binding: 20 mM Tris-HCl pH 7.5, 250 mM NaCl (membrane pre-soak/reaction buffer), 37 C 30 min; hDicer EMSA: 20 min at 4 C, Dicer preincubated without divalent cations (Fig S1), native PAGE; details: protein: commercial; hairpin
# [4] = target: T1, hDicer (human recombinant Dicer); experiment: EMSA; 4 C; Filter binding: 20 mM Tris-HCl pH 7.5, 250 mM NaCl (membrane pre-soak/reaction buffer), 37 C 30 min; hDicer EMSA: 20 min at 4 C, Dicer preincubated without divalent cations (Fig S1), native PAGE; details: protein: commercial; label: 5'-32P; single strand
binder,measurement,setting,value
B1,binding result,[1],binds
B2,binding result,[2],binds
B3,binding result,[3],binds
B4,binding result,[3],binds
B5,binding result,[4],binds

# Reference: article PMC3812226, “A New Short Oligonucleotide-Based Strategy for the Precursor-Specific Regulation of microRNA Processing by Dicer”
